Measurements published in publication PMC4505599.

Target: Mos1 transposase (T216A mutant) (Drosophila mauritiana)
Experiment: crystal structure; Mos1 IRL paired-end complex: full-length transposase mixed with duplex IRL DNA at 1:1.5 protein:DNA in 25 mM Tris pH 7.5, 250 mM KCl, 1 mM DTT; crystals grown at 17 °C; 3.1 Å

stoichiometry N: 2
Substance: Mos1 transposase (T216A mutant) (enzyme)
